For the assay, the target named is vimentin of SCCVII cells (cell-surface protein of murine squamous cell carcinoma cells and SCCVII tumors in C3H mice) (mouse (murine SCCVII cells)) (UniProt P20152). Kind of assay: cell-based or functional assay.
Sequence of UniProt P20152 (P20152 2-466): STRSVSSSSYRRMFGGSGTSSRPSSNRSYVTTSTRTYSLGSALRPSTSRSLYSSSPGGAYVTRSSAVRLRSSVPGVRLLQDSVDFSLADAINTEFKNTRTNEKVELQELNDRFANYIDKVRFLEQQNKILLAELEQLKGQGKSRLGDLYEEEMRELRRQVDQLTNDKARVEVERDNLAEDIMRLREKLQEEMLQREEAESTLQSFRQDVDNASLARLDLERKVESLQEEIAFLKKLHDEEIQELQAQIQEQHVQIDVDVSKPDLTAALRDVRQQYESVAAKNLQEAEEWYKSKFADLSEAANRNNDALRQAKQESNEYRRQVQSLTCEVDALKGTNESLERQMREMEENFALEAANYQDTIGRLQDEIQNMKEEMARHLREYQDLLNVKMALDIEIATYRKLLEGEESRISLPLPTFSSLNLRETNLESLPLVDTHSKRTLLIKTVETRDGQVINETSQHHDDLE

As for H-VNTANSTGG-biotin [CHP-biotin (NH2-…-biotin)], the accumulation of peptide-biotin in SCCVII tumor (positive per field, DAB staining), co-administered with anti-vimentin (positive per field) worked out at 1.2 and the accumulation of peptide-biotin in SCCVII tumor (positive per field, DAB staining), without anti-vimentin (positive per field) is 19.6.

The values above are taken from patent US20120208770A1.
